Results: patent US20230265151A1, “GIP/GLP1 CO-AGONIST COMPOUNDS” (priority 2020, published 2023)
*1 amine or outer side, *2 acyl side, *3 side chain or, on linkers, in order; H or OH if unused. Where no end group is shown, it is not given here. Side-chain parts run from the residue outwards. [ ]: non-standard residue; d: D form. The star is where a group is joined. αMePhe(2-F) = C[C@](N)(Cc1ccccc1F)C(=O)O; γGlu = O=C(O)[C@H](CCC(=O)[*:2])N[*:1]; C14 diacid = O=C(O)CCCCCCCCCCCCC(=O)*; εLys = N[C@@H](CCCCN[*:1])C(=O)[*:2]; αMeY = C[C@](N)(Cc1ccc(O)cc1)C(=O)O; αMeF = C[C@](N)(Cc1ccccc1)C(=O)O; αMeL = CC(C)C[C@](C)(N)C(=O)O; Orn = NCCC[C@H](N)C(=O)O; AEEA = NCCOCCOCC(=O)O; Aib = CC(C)(N)C(=O)O

What was measured:
Experiment in all cases: cell-based or functional assay
[1] = molecular target: human glucagon-like peptide-1 (GLP-1) receptor (human, UniProt P43220 24-463)
human glucagon receptor = human glucagon receptor (human, UniProt P47871 26-477)
[2] = molecular target: T1, human glucose-dependent insulinotropic polypeptide (GIP) receptor (human, UniProt P48546 22-466)
T1 sequence (looked up): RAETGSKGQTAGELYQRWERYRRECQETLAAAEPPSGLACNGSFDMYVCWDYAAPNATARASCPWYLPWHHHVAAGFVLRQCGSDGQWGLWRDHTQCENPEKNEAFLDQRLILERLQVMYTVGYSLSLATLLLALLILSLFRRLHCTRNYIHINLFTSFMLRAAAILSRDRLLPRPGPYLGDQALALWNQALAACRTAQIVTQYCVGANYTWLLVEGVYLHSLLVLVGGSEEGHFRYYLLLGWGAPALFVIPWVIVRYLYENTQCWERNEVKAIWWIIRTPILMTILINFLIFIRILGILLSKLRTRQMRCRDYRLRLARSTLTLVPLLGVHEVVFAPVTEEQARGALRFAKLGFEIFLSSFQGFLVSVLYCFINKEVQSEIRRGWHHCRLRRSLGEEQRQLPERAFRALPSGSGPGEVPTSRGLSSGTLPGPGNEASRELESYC

human GIP receptor = molecular target: T2, human GIP receptor (human, UniProt P48546 22-466)
T2 sequence (looked up): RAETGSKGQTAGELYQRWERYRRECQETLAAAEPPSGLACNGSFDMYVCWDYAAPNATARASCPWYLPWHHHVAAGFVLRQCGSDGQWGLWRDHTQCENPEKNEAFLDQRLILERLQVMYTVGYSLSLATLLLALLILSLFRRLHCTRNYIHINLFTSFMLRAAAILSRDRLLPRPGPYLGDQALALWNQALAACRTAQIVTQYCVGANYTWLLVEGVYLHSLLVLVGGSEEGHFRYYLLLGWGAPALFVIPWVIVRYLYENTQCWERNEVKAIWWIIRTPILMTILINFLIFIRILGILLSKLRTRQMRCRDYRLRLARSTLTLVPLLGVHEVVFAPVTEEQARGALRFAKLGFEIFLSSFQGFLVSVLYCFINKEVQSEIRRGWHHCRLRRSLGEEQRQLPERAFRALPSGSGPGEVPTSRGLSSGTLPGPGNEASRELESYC

human GLP-1 receptor = human GLP-1 receptor (human, UniProt P43220 24-463)

| Binder | cAMP EC50 [1] | cAMP Emax [1] | cAMP EC50 (human glucagon receptor) | cAMP EC50 [2] | cAMP Emax [2] | cAMP EC50 (1.0% HSA) (human GIP receptor) | cAMP EC50 (1.0% HSA) (human GLP-1 receptor) |
| --- | --- | --- | --- | --- | --- | --- | --- |
| Y[Aib]EGT[αMePhe(2-F)]TSDV[Aib]I[αMeL]LD[Orn]K([εLys-εLys-γGlu-C14 diacid])AQ[Aib]EFIK([εLys-εLys-γGlu-C14 diacid])[αMeY]LIEGGPSSGAPPPS-NH2 [Example 168] | 0.312 nM | 93.3% | > 9950 nM | 0.0482 nM | 93% |  |  |
| YXEGTXTSDXSIXLDXKAQXEFIXXLIEGGKSSGAPPPS (Aib2, αMeF(2F)6, 4Pal10, αMeL13, Orn16, K17(Z), aMeF20, D-Glu24, αMeY25, K31(Z), C-terminal NH2; Z = AEEA2-(γ-Glu)-CO-(CH2)12-CO2H) [Example 169] | 1.23 nM |  | > 9950 nM | 0.0381 nM |  |  |  |
| YXEGTXTSDXSIXLDXKAQXEXIXXLIEGGKSSGAPPPS (Aib2, αMeF6, 4Pal10, αMeL13, Orn16, K17(Z), Aib20, αMeF22, D-Glu24, αMeF25, K31(Z), C-terminal NH2; Z = AEEA2-(γ-Glu)-CO-(CH2)10-CH3) [Example 174] | 0.33 nM | 98.2% | > 9950 nM | 0.0284 nM | 92.2% |  |  |
| YXEGTXTSDXXIXLDXKAQXEFIXXLIEGGKSSGAPPPS (Aib2, αMeF(2F)6, 4Pal10, Dap11, αMeL13, Orn16, K17(Z), Aib20, D-Glu24, αMeY25, K31(Z), C-terminal NH2; Z = AEEA2-(γ-Glu)-CO-(CH2)12-CO2H) [Example 199] | 3.2 nM | 96.7% | > 9950 nM | 0.0587 nM | 96.9% |  |  |
| YXEGTXTSDXSIXLDXKAQXEFIXXLIEGGKSSGAPPPS (Aib2, αMeF(2F)6, 4Pal10, αMeL13, Orn16, K17(Z), Ac6c20, D-Glu24, αMeY25, K31(Z), C-terminal NH2; Z = AEEA2-(γ-Glu)-CO-(CH2)12-CO2H) [Example 171] | 1.7 nM |  | > 9950 nM | 0.0389 nM |  |  |  |
| YXEGTXTSDVSIXLDXKAQXEFIKXLIEGGPSSGAPPPS (Aib2, αMeF6, αMeL13, Orn16, K17(Z), Aib20, K24(Z), αMeY25, C-terminal NH2; Z = AEEA2-(γ-Glu)-CO-(CH2)12-CO2H) [Example 181] | 0.182 nM |  | > 9950 nM | 0.154 nM | 94.6% |  |  |
| YXEGTXTSDVSIXLDXKAQXEFIXXLIEGGKSSGAPPPS (Aib2, αMeF6, αMeL13, Orn16, K17(Z), Aib20, D-Glu24, αMeY25, K31(Z), C-terminal NH2; Z = AEEA2-(γ-Glu)-CO-(CH2)12-CO2H) [Example 179] | 0.461 nM | 99% | > 9950 nM | 0.15 nM | 91% |  |  |
| YXEGTXTSDXSIXLDXKAQXEFIXXLIEGGKSSGAPPPS (Aib2, αMeF(2F)6, 4Pal10, αMeL13, Orn16, K17(Z), Ac5c20, D-Glu24, αMeY25, K31(Z), C-terminal NH2; Z = AEEA2-(γ-Glu)-CO-(CH2)12-CO2H) [Example 170] | 1.03 nM |  | > 9950 nM | 0.0244 nM |  |  |  |
| YXEGTXTSDXSIXLDXIAQXEFIKXLIEGGKSSGAPPPS (Aib2, αMeF(2F)6, 4Pal10, αMeL13, Orn16, Aib20, K24(Z), αMeY25, K31(Z), C-terminal NH2; Z = (εK)-(εK)-(γ-Glu)-CO-(CH2)12-CO2H) [Example 198] | 0.362 nM |  | > 9950 nM | 0.0269 nM | 94% |  |  |
| YXEGTXTSDXSIXLDXKAQXEXIXXLIEGGKSSGAPPPS (Aib2, αMeF6, 4Pal10, αMeL13, Orn16, K17(Z), Aib20, αMeF22, D-Glu24, αMeY25, K31(Z), C-terminal NH2; Z = AEEA2-(γ-Glu)-CO-(CH2)10-CH3) [Example 173] | 0.343 nM | 89.9% | > 9950 nM | 0.0155 nM | 87.8% |  |  |
| YXEGTXTSDXSIXLDXIAQXKFIXXLIEGGKSSGAPPPS (not fully specified; Aib2, αMeF(2F)6, 4Pal10, αMeL13, Orn16, Aib20, K21(AEEA2-CO-(CH2)12-CO2H), D-Glu24, αMeY25, K31(AEEA2-CO-(CH2)2-CO2H as printed), C-terminal NH2) [Example 195] | 0.343 nM |  | > 9950 nM | 0.0219 nM | 88.5% |  |  |
| YXEGTXTSDXSIXLDXKAQXEFIXXLIEGGKSSGAPPPS (Aib2, αMeF6, 4Pal10, αMeL13, Orn16, K17(Z), Aib20, D-Glu24, αMeY25, K31(Z), C-terminal NH2; Z = AEEA2-(γ-Glu)-CO-(CH2)10-CH3) [Example 172] | 0.141 nM |  | > 9950 nM | 0.0149 nM |  |  |  |
| YXEGTXTSDXSIXLDXIAQXKFIKXLIEGGPSSGAPPPS (Aib2, αMeF(2F)6, 4Pal10, αMeL13, Orn16, Aib20, K21(Z), K24(Z), αMeY25, C-terminal NH2; Z = AEEA2-CO-(CH2)12-CO2H) [Example 191] | 0.926 nM | 98.6% | > 9950 nM | 0.0601 nM | 90% |  |  |
| YXEGTXTSDXSIXLDXIAQXEFIKXLIEGGKSSGAPPPS (Aib2, αMeF(2F)6, 4Pal10, αMeL13, Orn16, Aib20, K24(Z), αMeY25, K31(Z), C-terminal NH2; Z = (εK)-(γ-Glu)-CO-(CH2)12-CO2H) [Example 197] | 0.336 nM |  | > 9950 nM | 0.0338 nM | 102% |  |  |
| YXEGTXTSDXSIXLDXIAQXEFIKXLIEGGKSSGAPPPS (Aib2, αMeF(2F)6, 4Pal10, αMeL13, Orn16, Aib20, K24(Z), αMeY25, K31(Z), C-terminal NH2; Z = AEEA2-CO-(CH2)12-CO2H) [Example 193] | 0.382 nM |  | > 9950 nM | 0.0201 nM | 97.2% |  |  |
| YXEGTXTSDXSIXLDXIAQXEFIKXLIKGGPSSGAPPPS (Aib2, αMeF(2F)6, 4Pal10, αMeL13, Orn16, Aib20, K24(Z), αMeY25, K28(Z), C-terminal NH2; Z = AEEA2-CO-(CH2)12-CO2H) [Example 192] | 0.518 nM |  | > 9950 nM | 0.0375 nM |  |  |  |
| Y[Aib]EGT[αMeF]TSDV[Aib]I[αMeL]LD[Orn]K([AEEA-AEEA-γGlu-C14 diacid])AQ[Aib]EFIK([AEEA-AEEA-γGlu-C14 diacid])[αMeY]LIEGGKSSGAPPPS-NH2 (not fully specified) [Example 182] | 0.185 nM | 96.9% | > 9950 nM | 0.368 nM | 89% |  |  |
| Y[Aib]EGT[αMePhe(2-F)]TSDV[Aib]I[αMeL]LD[Orn]K([AEEA-AEEA-γGlu-C14 diacid])AQ[Aib]EFI[dE][αMeY]LIEGGK([AEEA-AEEA-γGlu-C14 diacid])SSGAPPPS-NH2 (N-terminus assumed; SMILES CC[C@H](C)[C@H](NC(=O)[C@H](CC(C)C)NC(=O)[C@](C)(Cc1ccc(O)cc1)NC(=O)[C@@H](CCC(=O)O)NC(=O)[C@@H](NC(=O)[C@H](Cc1ccccc1)NC(=O)[C@H](CCC(=O)O)NC(=O)C(C)(C)NC(=O)[C@H](CCC(N)=O)NC(=O)[C@H](C)NC(=O)[C@H](CCCCNC(=O)COCCOCCNC(=O)COCCOCCNC(=O)CC[C@H](NC(=O)CCCCCCCCCCCCC(=O)O)C(=O)O)NC(=O)[C@H](CCCN)NC(=O)[C@H](CC(=O)O)NC(=O)[C@H](CC(C)C)NC(=O)[C@](C)(CC(C)C)NC(=O)[C@@H](NC(=O)C(C)(C)NC(=O)[C@@H](NC(=O)[C@H](CC(=O)O)NC(=O)[C@H](CO)NC(=O)[C@@H](NC(=O)[C@](C)(Cc1ccccc1F)NC(=O)[C@@H](NC(=O)CNC(=O)[C@H](CCC(=O)O)NC(=O)C(C)(C)NC(=O)[C@@H](N)Cc1ccc(O)cc1)[C@@H](C)O)[C@@H](C)O)C(C)C)[C@@H](C)CC)[C@@H](C)CC)C(=O)N[C@@H](CCC(=O)O)C(=O)NCC(=O)NCC(=O)N[C@@H](CCCCNC(=O)COCCOCCNC(=O)COCCOCCNC(=O)CC[C@H](NC(=O)CCCCCCCCCCCCC(=O)O)C(=O)O)C(=O)N[C@@H](CO)C(=O)N[C@@H](CO)C(=O)NCC(=O)N[C@@H](C)C(=O)N1CCC[C@H]1C(=O)N1CCC[C@H]1C(=O)N1CCC[C@H]1C(=O)N[C@@H](CO)C(N)=O) |  |  |  |  |  | 7.05 nM | 20.4 nM |
| YXEGTXTSDXSIXLDXIAQXEFIKXLIEGGPSSGAPPPSK (Aib2, αMeF(2F)6, 4Pal10, αMeL13, Orn16, Aib20, K24(Z), αMeY25, K40(Z), C-terminal NH2; Z = AEEA2-CO-(CH2)12-CO2H) [Example 194] | 0.317 nM | 103% | > 9950 nM | 0.0233 nM | 93.1% |  |  |
| YXEGTXTSDXSIXLDXIAQXKFIXXLIEGGPSSGAPPPSK (Aib2, αMeF(2F)6, 4Pal10, αMeL13, Orn16, Aib20, K21(Z), D-Glu24, αMeY25, K40(Z), C-terminal NH2; Z = AEEA2-CO-(CH2)12-CO2H) [Example 196] | 0.356 nM |  | > 9950 nM | 0.0232 nM |  |  |  |
